Experimental data as given in patent US20240287501A1 (VIB VZW, published 2024).

Experiments:
[1] = biological target: T1, BMH1 (native, from EBY100 lysate) (Saccharomyces cerevisiae, UniProt P29311 2-267); test: co-IP, Nb on NHS-agarose beads, EBY100 yeast lysate, SDS-PAGE
T1 construct: mature; Endogenous untagged protein; also called YER177W
T1 sequence (looked up): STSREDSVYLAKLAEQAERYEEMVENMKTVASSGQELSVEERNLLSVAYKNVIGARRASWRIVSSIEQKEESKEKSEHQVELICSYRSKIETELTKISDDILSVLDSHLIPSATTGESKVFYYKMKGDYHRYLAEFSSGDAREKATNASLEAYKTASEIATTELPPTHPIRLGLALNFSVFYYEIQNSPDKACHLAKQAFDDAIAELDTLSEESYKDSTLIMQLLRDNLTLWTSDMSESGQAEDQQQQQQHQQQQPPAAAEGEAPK

GFP-tagged BMH1 = biological target: T2, GFP-tagged BMH1 (Saccharomyces cerevisiae, UniProt P29311 2-267); test: co-immunoprecipitation, Nb coupled to NHS-agarose beads, lysate of the yeast strain expressing the GFP-tagged target, Western blot anti-GFP
T2 construct: Yeast GFP Fusion Collection strain; also called Yeast GFP fusion collection GFP(+)27, D5; not shown: GFP tag
T2 sequence (looked up): T1 sequence (looked up)
Method: One SIS1-specific Nanobody (44=Nb clone CA17444 corresponding to SEQ ID NO: 9), three ALD6-specific Nanobodies (53=CA17453-SEQ ID NO: 10, 54=CA17454-SEQ ID NO: 11, 60=CA17460-SEQ ID NO: 12), two BMH1-specific Nanobodies (58=CA17458-SEQ ID NO: 13, 59=CA17459-SEQ ID NO: 14) were characterized by co-immunoprecipitation assays. Each target-specific Nanobodies was covalently linked to NHS-agarose beads. The beads that were functionalized with these target-specific Nanobodies were incubated for an hour at 4° C. on a rotating device with either an EBY100 lysate or the lysate of the engineered Yeast strain expressing the target (Yeast GFP fusion collection reference for SIS1: GFP(+)22, E5, for ALD6: GFP(+)15, F1, for BMH1: GFP(+)27, D5) as a GFP-tagged protein. After washing, these beads were resuspended in SDS-PAGE loading dye and analyzed on SDS-PAGE (FIG. 8A). Separated proteins were transferred to a PVDF membrane and the Western blot (FIG. 8B) was developed with GFP-specific antibody to confirm the presence of GFP-tagged targets.

GFP-tagged SBA1 = biological target: T3, GFP-tagged SBA1 (Saccharomyces cerevisiae, UniProt P28707 2-216); test: as above
T3 construct: Yeast GFP Fusion Collection strain; also called Yeast GFP fusion collection GFP(+)30, A6; YKL117W; not shown: GFP tag
T3 sequence (looked up): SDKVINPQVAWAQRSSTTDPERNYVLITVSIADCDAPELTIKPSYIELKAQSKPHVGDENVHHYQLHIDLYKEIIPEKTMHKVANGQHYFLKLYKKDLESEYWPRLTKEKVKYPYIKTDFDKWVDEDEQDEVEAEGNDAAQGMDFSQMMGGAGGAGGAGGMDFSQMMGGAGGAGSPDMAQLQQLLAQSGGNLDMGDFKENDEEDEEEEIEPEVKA
Source text: (§1) One HSP104-specific Nanobody (04=CA18504 SEQ ID NO:40), one MET6-specific Nanobody (05=CA18505 SEQ ID NO:41), two SBA1-specific Nanobodies (08=Nb clone CA18508 corresponding to SEQ ID NO:42, 09=CA18509-SEQ ID NO:43), one SOD1-specific Nanobody (10=CA18510-SEQ ID NO:44), and a ENO1-specific Nanobody (38=CA17938-SEQ ID NO:45), were characterized by co-immunoprecipitation assays. Each POI-specific Nanobodies was covalently linked to NHS-agarose beads. The beads that were functionalized with these POI-specific Nanobodies were incubated for an hour at 4° C. on a rotating device with the lysate of the engineered Yeast strain expressing the POIs (Yeast GFP fusion collection reference: GFP(+)05, A2 (HSP104); GFP(+)07, D4 (MET6); GFP(+)30, A6 (SBA1); GFP(+)33, F8 (SOD1) and GFP(+)17, D12 (ENO1) as a GFP-tagged protein. After washing, these beads were analyzed on SDS-PAGE (not shown) and Western blot was developed with GFP-specific antibody to confirm the presence of GFP-tagged POIs.

[2] = biological target: T4, SSA1 (native, from EBY100 lysate) (Saccharomyces cerevisiae, UniProt P10591 2-642); test: co-immunoprecipitation, Nb coupled to NHS-agarose beads, EBY100 yeast lysate (native target), SDS-PAGE
T4 construct: mature; Endogenous untagged protein; also called YAL005C
Method: (§2) Six SSA1-specific Nanobodies (60=Nb clone CA17560 corresponding to SEQ ID NO: 19, 61=CA17561-SEQ ID NO: 20, 62=CA17562-SEQ ID NO: 21, 63=CA17563-SEQ ID NO: 22, 64=CA17564-SEQ ID NO: 23, 65=CA17565-SEQ ID NO: 24) were characterized by co-immunoprecipitation assays. Each SSA1-specific Nanobodies was covalently linked to NHS-agarose beads. The beads that were functionalized with these SSA1-specific Nanobodies were incubated for an hour at 4° C. on a rotating device with either an EBY100 lysate or the lysate of the engineered Yeast strain expressing SSA1 (Yeast GFP fusion collection reference: GFP(+)10, E4) as a GFP-tagged protein. After washing, these beads were resuspended in SDS-PAGE loading dye and analyzed on SDS-PAGE (FIG. 6A). Separated proteins were transferred to a PVDF membrane and the Western blot (FIG. 6B) was developed with GFP-specific antibody to confirm the presence of GFP-tagged SSA1.

GFP-tagged SSA1 = biological target: T5, GFP-tagged SSA1 (Saccharomyces cerevisiae, UniProt P10591 2-642); test: co-immunoprecipitation, Nb coupled to NHS-agarose beads, lysate of the yeast strain expressing the GFP-tagged target, SDS-PAGE
T5 construct: Yeast GFP Fusion Collection strain; also called Yeast GFP fusion collection GFP(+)10, E4; not shown: GFP tag
Method: as §2

GFP-tagged ENO1 = biological target: T6, GFP-tagged ENO1 (Saccharomyces cerevisiae, UniProt P00924 2-437); test: co-immunoprecipitation, Nb coupled to NHS-agarose beads, lysate of the yeast strain expressing the GFP-tagged target, Western blot anti-GFP
T6 construct: Yeast GFP Fusion Collection strain; also called Yeast GFP fusion collection GFP(+)17, D12; YGR254W; not shown: GFP tag
Source text: as §1

GFP-tagged HSP104 = biological target: T7, GFP-tagged HSP104 (Saccharomyces cerevisiae, UniProt P31539 1-908); test: as above
T7 construct: Yeast GFP Fusion Collection strain; also called Yeast GFP fusion collection GFP(+)05, A2; YLL026W; not shown: GFP tag
Source text: as §1

GFP-tagged MET6 = biological target: T8, GFP-tagged MET6 (Saccharomyces cerevisiae, UniProt P05694 2-767); test: as above
T8 construct: Yeast GFP Fusion Collection strain; also called Yeast GFP fusion collection GFP(+)07, D4; YER091C; not shown: GFP tag
T8 sequence (looked up): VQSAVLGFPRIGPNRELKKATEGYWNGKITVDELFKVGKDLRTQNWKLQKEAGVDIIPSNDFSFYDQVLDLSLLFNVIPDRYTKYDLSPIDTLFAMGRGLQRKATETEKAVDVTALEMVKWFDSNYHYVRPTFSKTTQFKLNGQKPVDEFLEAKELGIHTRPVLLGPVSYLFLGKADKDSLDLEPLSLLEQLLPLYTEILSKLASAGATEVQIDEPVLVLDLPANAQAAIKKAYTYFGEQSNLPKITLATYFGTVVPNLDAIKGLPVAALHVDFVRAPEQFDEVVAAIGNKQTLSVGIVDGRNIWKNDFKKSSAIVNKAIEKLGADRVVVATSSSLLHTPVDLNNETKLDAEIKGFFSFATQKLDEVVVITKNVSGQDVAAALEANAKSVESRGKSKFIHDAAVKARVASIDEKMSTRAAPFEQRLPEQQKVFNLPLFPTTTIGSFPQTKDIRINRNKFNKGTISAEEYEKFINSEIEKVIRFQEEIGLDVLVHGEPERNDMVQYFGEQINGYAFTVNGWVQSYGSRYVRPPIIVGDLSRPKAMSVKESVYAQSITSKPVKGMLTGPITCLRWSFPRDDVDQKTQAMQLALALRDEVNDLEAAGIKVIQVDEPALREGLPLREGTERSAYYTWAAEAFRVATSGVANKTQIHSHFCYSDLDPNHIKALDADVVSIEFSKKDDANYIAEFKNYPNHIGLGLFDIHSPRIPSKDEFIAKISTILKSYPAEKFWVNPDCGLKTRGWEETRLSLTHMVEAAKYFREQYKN
Source text: as §1

GFP-tagged SOD1 = biological target: T9, GFP-tagged SOD1 (Saccharomyces cerevisiae, UniProt P00445 2-154); test: as above
T9 construct: Yeast GFP Fusion Collection strain; also called Yeast GFP fusion collection GFP(+)33, F8; YJR104C; not shown: GFP tag
T9 sequence (looked up): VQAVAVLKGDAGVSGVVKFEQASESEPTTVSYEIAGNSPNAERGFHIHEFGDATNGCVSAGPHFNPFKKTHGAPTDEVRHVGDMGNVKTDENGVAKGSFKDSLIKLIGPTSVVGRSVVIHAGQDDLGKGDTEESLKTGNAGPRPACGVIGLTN
Source text: as §1

GFP protein = biological target: T10, GFP protein (Aequorea victoria (Water jellyfish) …, UniProt P42212 1-238 = GFP, biotinylated with the EZ-Link sulfo-NHS-LC-biotinylation kit for the BLI assay; unmodified in the NANEX selections); test: method not stated
T10 construct: Purified GFP; also called wild type GFP; biotinylated GFP

T6 sequence (P00924 2-437): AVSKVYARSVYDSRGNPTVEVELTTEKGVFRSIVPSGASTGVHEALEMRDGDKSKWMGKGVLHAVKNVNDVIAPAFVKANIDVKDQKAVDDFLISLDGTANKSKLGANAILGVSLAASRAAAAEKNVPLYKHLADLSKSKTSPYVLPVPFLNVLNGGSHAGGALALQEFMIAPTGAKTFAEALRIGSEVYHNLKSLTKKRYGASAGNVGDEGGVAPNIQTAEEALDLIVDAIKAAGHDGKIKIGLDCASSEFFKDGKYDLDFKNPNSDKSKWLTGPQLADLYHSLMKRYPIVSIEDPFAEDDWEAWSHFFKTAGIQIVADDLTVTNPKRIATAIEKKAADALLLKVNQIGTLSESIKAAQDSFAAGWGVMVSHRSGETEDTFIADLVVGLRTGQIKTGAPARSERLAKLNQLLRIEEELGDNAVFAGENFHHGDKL
T4 sequence (P10591 2-642): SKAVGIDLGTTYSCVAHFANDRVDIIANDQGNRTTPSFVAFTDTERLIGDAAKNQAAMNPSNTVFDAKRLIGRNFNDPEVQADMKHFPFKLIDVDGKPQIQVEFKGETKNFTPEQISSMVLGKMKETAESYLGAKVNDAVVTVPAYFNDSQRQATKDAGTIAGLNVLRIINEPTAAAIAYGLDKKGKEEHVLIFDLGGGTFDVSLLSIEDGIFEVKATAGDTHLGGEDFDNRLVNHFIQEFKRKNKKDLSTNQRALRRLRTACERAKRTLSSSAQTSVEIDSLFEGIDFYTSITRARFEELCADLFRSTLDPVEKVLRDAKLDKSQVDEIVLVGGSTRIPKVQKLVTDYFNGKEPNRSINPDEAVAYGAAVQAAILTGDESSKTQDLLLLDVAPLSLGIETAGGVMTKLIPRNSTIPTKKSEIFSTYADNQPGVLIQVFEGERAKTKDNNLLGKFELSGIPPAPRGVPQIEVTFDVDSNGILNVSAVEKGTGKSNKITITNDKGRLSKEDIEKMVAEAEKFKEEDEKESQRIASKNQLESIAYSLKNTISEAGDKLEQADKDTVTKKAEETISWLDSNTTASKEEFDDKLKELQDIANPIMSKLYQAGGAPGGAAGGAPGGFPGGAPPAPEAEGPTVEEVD
T5 sequence (P10591 2-642): as above
T7 sequence (P31539 whole entry, the tested form may be a part): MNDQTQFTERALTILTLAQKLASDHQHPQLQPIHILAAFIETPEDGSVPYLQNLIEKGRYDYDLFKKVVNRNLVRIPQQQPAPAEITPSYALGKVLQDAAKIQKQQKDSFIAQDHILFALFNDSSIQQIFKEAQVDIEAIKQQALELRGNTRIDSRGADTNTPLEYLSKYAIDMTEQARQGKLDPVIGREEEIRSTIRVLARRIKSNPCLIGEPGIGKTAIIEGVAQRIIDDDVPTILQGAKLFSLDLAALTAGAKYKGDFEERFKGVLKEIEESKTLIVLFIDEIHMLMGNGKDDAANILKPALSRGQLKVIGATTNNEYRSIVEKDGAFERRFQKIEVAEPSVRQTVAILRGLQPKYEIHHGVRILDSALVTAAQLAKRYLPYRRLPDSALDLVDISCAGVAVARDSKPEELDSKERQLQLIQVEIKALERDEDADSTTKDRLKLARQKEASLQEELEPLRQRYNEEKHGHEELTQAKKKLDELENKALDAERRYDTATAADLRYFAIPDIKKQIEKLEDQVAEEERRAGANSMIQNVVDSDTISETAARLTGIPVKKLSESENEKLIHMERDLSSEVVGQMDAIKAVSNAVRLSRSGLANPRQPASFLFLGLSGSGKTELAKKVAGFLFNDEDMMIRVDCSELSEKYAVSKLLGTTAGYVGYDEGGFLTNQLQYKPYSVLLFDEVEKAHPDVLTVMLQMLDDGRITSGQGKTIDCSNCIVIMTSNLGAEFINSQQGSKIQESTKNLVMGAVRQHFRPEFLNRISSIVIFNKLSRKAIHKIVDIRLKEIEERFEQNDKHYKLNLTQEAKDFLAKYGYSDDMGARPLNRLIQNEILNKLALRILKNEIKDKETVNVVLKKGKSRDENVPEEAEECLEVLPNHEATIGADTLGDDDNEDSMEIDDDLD

B1: CA17458 (VHH)
VHH: QVQLVESGGGLVQPGGSLRLSCAASGTTLSLRRVGWYRQAPGKQRDLVATLTSGGETSYADSVKGRFTISRDNAKNTVYLQMNSLKLEDTAVYYCNAINWPMDYWGQGTQVTVSS
notes: C-terminal 6xHis-EPEA tag is part of the entry
binding result [1]: binds | binding result (GFP-tagged BMH1): binds

B2: CA18509 (VHH)
VHH: QVQLVESGGGLVQPGGSLRLSCAAAGFTFRMLDMSWYRQAPGKERELVATITSVSGTTNYADSVKGRVTISRDNAKNTVYLQMNSLKPEDTAVYYCNARMAAWGLDYWGQGTQVTVSS
notes: as for B1
binding result (GFP-tagged SBA1): binds

B3: CA17560 (VHH)
VHH: QVQLVESGGGLVHSGGSLRLSCVASGGAFNDYTMGWFRQAPGKERQFVAAITWSSGVTSYSDSVRGRFVISRDIAKNTVYLQMNSLNPEETAVYVCAARLGVSSSPNSQISHRYDYWGQGTQVTVSS
notes: as for B1
binding result [2]: binds | binding result (GFP-tagged SSA1): binds

B4: CA17938 (VHH)
VHH: QVQLVESGGGLVQPGGSLRLSCAASGFTLDTWAIGWFRQVPGKDREGAACISSEPSSTYYGEFVNGRFTISRDSAKSTVYLQMNDLKPEDTAVYYCSADRLSAYCSGSGGWGQGTQVTVSS
notes: as for B1
binding result (GFP-tagged ENO1): binds

B5: CA18504 (VHH)
VHH: QVQLVESGGGLVQPGGSLTLSCAGSGRAFDSIAMGWFRQAPGKEREFVAAISWNGVSAYYADSVKGRFTISRDNAKNTVHLQMNSLQSDDTAVYYCHADNSWGQGTQVTVSS
notes: as for B1
binding result (GFP-tagged HSP104): binds

B6: CA18505 (VHH)
VHH: QVQLVESGGGLVQPGGSLRLSCAASGSIFSINAWGWYRQAPGKERELVAVITSVGGRTNYADSVKGRFTISRDNAKDMVYLQMNSLKPEDTAVYYCNSRGSSWYFGTPQDYWGQGTQVTVSS
notes: as for B1
binding result (GFP-tagged MET6): binds

B7: CA18508 (VHH)
VHH: QVQLVESGGGLVQPGGSLRLSCAASGFTFSNTAMSWYRQAPGKERELVAVSTSAGGGTDYADSVQGRFTISRDNAKNTVYLQMNDLKPEDTAVYYCYAVGRYRSSWRLLPFGSWGQGTQVTVSS
notes: as for B1
binding result (GFP-tagged SBA1): binds

B8: CA18510 (VHH)
VHH: QVQLVESGGGLVEAGGSLRLSCAASGRTFSSYAMGWFRQAPGKEREFVAAISWSGGSTYYADSVKGRFTISRDNAKNTVYLQMNSLKPEDTAVYYCAAPTAYHYSTTRDEYDSWGQGTQVTVSS
notes: as for B1
binding result (GFP-tagged SOD1): binds

B9: CA15816 (VHH)
VHH: QVQLVESGGGLVQAGGSLRLSCAASGRTFSTAAMGWFRQAPGKERDFVAGIYWAAGSTYYADSAKGRFTISRDNAKNTVYLQMDSLKPEDTAVYYCAARRRGFTLAPTRANEYDYWGQGTQVTVSS
notes: C-terminal 6xHis-EPEA tag is part of the entry, which already carries T54A/V55A; also called GFP trapper; GFP-specific trapper
Kd (GFP protein): 2.7 nM
